The values below come from the RNAGym collection of RNA variant scans (doi:10.1073/pnas.2313332121).

First the molecules themselves.
B1: TPR t1 (parent)
chain: GACCAAUCUGCCCUCAGAGCUCGAGAACAUCUUCGGAUGCAGAGGAGGCAGGCUUCGGUGGCGCGAUAGCGCCAACGUCCUCAACCUCCAAUGCAUCCCACCACAUGAUGAUGCCUGAAGAGCCUUGGUUUUUUG

In the data set the parent is B1. Kind of data set: polymerase ribozyme fitness, log enrichment relative to wild type (log ratio); higher = more active; in vitro selection for triplet polymerase activity. In short, it runs like this: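 Mutant libraries were PCR-built and transcribed for each subunit of a heterodimeric triplet polymerase ribozyme and selected for one round in triplicate at −7 °C, frozen, before gel excision of extended constructs and streptavidin-bead capture. Input and output libraries were Illumina-sequenced, keeping genotypes with ≥10 input reads and ≥1 read per output. Fitness is a logarithmic ratio of genotype to wild-type enrichment, in base 2, using inverse-variance-weighted replicate averages.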
Take G47U C79U: the “polymerase ribozyme fitness (log ratio)” value is -1.85. G47U: the “polymerase ribozyme fitness (log ratio)” value was -1.72. Take G47U G57A G69U: the “polymerase ribozyme fitness (log ratio)” value was -1.68. On to G47U G51A G61U C79G G93A G113C C114G, for which the “polymerase ribozyme fitness (log ratio)” value is -6.6. As to G47C U126A, the “polymerase ribozyme fitness (log ratio)” value is -4.53.

In the case of G48A A66U, the “polymerase ribozyme fitness (log ratio)” value was -2.3. G47U C101A: the “polymerase ribozyme fitness (log ratio)” value is -2.91. For the variant G47C U81G, the “polymerase ribozyme fitness (log ratio)” value is -3.84. Consider G47U C85G A111C, for which the “polymerase ribozyme fitness (log ratio)” value was -2.87.

Consider G47U C49G C62U C88A A95C C123A, for which the “polymerase ribozyme fitness (log ratio)” value was -4.59.

Consider G48A A95G U132A, for which the “polymerase ribozyme fitness (log ratio)” value was -1.21. As for G47U U92A, the figure is -5.48; as for G47C U112A, -0.857; as for G47U U78C A111U, -4.07.

Take G47C G61U C114U: the “polymerase ribozyme fitness (log ratio)” value was -3.31.

Consider G47U U116A, for which the “polymerase ribozyme fitness (log ratio)” value was -3.64. Turning to G47C G113C G127C, the “polymerase ribozyme fitness (log ratio)” value was -3.94. On to G47U C53U, for which the “polymerase ribozyme fitness (log ratio)” value was -1.6. Next, G47U C53A: -1.95. Regarding G48A A50C U78A A119G G120C, the “polymerase ribozyme fitness (log ratio)” value came out at 0.118. For G47U G63A, the “polymerase ribozyme fitness (log ratio)” value was -2.11.

Turning to G47U G63U, the “polymerase ribozyme fitness (log ratio)” value is -2.33. Next, G47U G63C: -2.32; G47C U78A: -1.42. On to G47U G58A G63U A90G G117C, for which the “polymerase ribozyme fitness (log ratio)” value was -6.13.

In the case of G47U G127U, the “polymerase ribozyme fitness (log ratio)” value is -2.57. In the case of G47U G127A, the “polymerase ribozyme fitness (log ratio)” value is -2.68. For G47U G117A, the “polymerase ribozyme fitness (log ratio)” value was -3.33.

For G47U U116G C124U, the “polymerase ribozyme fitness (log ratio)” value was -2.14.

As to G47U U55G U116G, the “polymerase ribozyme fitness (log ratio)” value is -3.9. On to G48A A68G, for which the “polymerase ribozyme fitness (log ratio)” value was -2.51.

For the variant G47U G60A, the “polymerase ribozyme fitness (log ratio)” value was -1.93. Next, G47U G48A A121U: 1.01; G47C U81G G93A C101U: -5.71; G47U G120C G127C: -1.64.

In the case of G47U G77U U106G, the “polymerase ribozyme fitness (log ratio)” value is -3.7. Next, G47U C53A A103C U112A G122A: -6.51; G47C U78A A105C G120C U130C: -3.11.

Regarding G47U C102U C124A U129C, the “polymerase ribozyme fitness (log ratio)” value was -2.98. Next, G47U U78G U96A: -1.79; G47C G110U: -2.81. Next, G47C G110A: -3.26; G47C G110C: -6.05. As to G47U G48U, the “polymerase ribozyme fitness (log ratio)” value was -2.67. On to G47U G48C, for which the “polymerase ribozyme fitness (log ratio)” value is -1.51.

Take G47C G61U U130A: the “polymerase ribozyme fitness (log ratio)” value is -2.36. Regarding G47C U55G C88U, the “polymerase ribozyme fitness (log ratio)” value was -1.25. Regarding G47U C70A, the “polymerase ribozyme fitness (log ratio)” value was -4.28. Turning to G47U C70G, the “polymerase ribozyme fitness (log ratio)” value was -6.87. On to G48A C53G U55C C56A, for which the “polymerase ribozyme fitness (log ratio)” value was -0.815. On to G47U C72G G117U, for which the “polymerase ribozyme fitness (log ratio)” value was -5.24. Next, G47U G110U U134A: -2.33. For G47C G63U A90U, the “polymerase ribozyme fitness (log ratio)” value is -5.15. Next, G48A A100U C101U G117A C123A: -3.72.

For G47U U59C C101U U125G U126C, the “polymerase ribozyme fitness (log ratio)” value was -3.12. As to G47U G61A, the “polymerase ribozyme fitness (log ratio)” value was -0.861. Turning to G47U G135U, the “polymerase ribozyme fitness (log ratio)” value was -2.02. On to G47U G61A U131A, for which the “polymerase ribozyme fitness (log ratio)” value was -0.875. Next, G47U G61C A90U G117C: -6.8.

As for G48A A95U, the “polymerase ribozyme fitness (log ratio)” value is -1.28. As for G47U C123U, the figure is -0.404; as for G47U G69C A105U, -5.38; as for G47U A95U C101U C104A A111G C123G, -5.49. Turning to G47U U55C C101G, the “polymerase ribozyme fitness (log ratio)” value is -2.84. As for G47U C85U C97A C124G, the figure is -4.97; as for G47U G77U C94A U116C A121C, -4.66; as for G48A A103G G110U, -6.26. In the case of G47U C72G, the “polymerase ribozyme fitness (log ratio)” value was -2.79.

Turning to G47U C72A, the “polymerase ribozyme fitness (log ratio)” value was -0.885.

Consider G47U U130G, for which the “polymerase ribozyme fitness (log ratio)” value is -2.4. Turning to G48A C56G G93U, the “polymerase ribozyme fitness (log ratio)” value is -2.28. As to G47U A111G G120A, the “polymerase ribozyme fitness (log ratio)” value was -2.18.

In the case of G47C G93U, the “polymerase ribozyme fitness (log ratio)” value is -3.69.

As to G47U A66G A118G U130G, the “polymerase ribozyme fitness (log ratio)” value is -4.13. For the variant G47C U55G C72G U106A U129A G135C, the “polymerase ribozyme fitness (log ratio)” value was -2.99. Next, G47U U55A C70U C94G: -4.62; G47U G69A: -4.35. Consider G47C G120C G122A G128U, for which the “polymerase ribozyme fitness (log ratio)” value was -3.66. Take G48A C56A G113U: the “polymerase ribozyme fitness (log ratio)” value was -4.64. G47U G63A A111G G120A: the “polymerase ribozyme fitness (log ratio)” value is -3.58. As for G47U U54C C56A C80U C124G, the figure is -1.14; as for G47U C64A A121U, -4.82; as for G47U G71A C104U, -2.44. Take G47U U54G C104U: the “polymerase ribozyme fitness (log ratio)” value was -1.47. In the case of G47U U106C, the “polymerase ribozyme fitness (log ratio)” value is -1.89. Consider G47U G58C G63U, for which the “polymerase ribozyme fitness (log ratio)” value was -1.75.

As to G48A C49G G51U C94A A111U, the “polymerase ribozyme fitness (log ratio)” value was -6.59. As for G47U U87G G120A, the figure is -1.99; as for G47U C88A, -6.05; as for G47U A66C C115U U130A G135A, -5.53. On to G47C G69U A90C C104U, for which the “polymerase ribozyme fitness (log ratio)” value was -1.9. As to G47U C80A, the “polymerase ribozyme fitness (log ratio)” value was -5.8. Regarding G47U G71C U125G, the “polymerase ribozyme fitness (log ratio)” value was -2.97.

In the case of G47C G69A, the “polymerase ribozyme fitness (log ratio)” value was -4.38.

In the case of G47U U55A C70A C94G, the “polymerase ribozyme fitness (log ratio)” value was -4.15. G47U G71C U126G: the “polymerase ribozyme fitness (log ratio)” value is -3.65.

Regarding G47U G58C C73G C104U A121U, the “polymerase ribozyme fitness (log ratio)” value is -5.16. Next, G48A A50C A84G: -0.336; G47U C72G A90G: -1.68; G48A A84G: -0.314. For the variant G48A A84C, the “polymerase ribozyme fitness (log ratio)” value is -0.643.

Turning to G47U A111G, the “polymerase ribozyme fitness (log ratio)” value is -0.984.

As for G47U A111U, the “polymerase ribozyme fitness (log ratio)” value is -3.66. Next, G47U A111C: -3.27; G47U C53G U96G C104U A118G C124U: -1.59; G47U C86G: -0.954. G48A C56A: the “polymerase ribozyme fitness (log ratio)” value was -1.1. Next, G47U C72A C76A: -1.85; G47U C62U G71U C82A A95U: -3.36. As for G47C G113A, the figure is -2.47; as for G47U A100U, -2.31; as for G47U A100C, -2.83.

With G47U C56G G69C C76A A119G U129C, the “polymerase ribozyme fitness (log ratio)” value was -7.91.

On to G47U C73U, for which the “polymerase ribozyme fitness (log ratio)” value is -1.42. Consider G48A C62A U81A, for which the “polymerase ribozyme fitness (log ratio)” value is -3.27.

For G47U G113C, the “polymerase ribozyme fitness (log ratio)” value is -2.7.

As to G47U G113U, the “polymerase ribozyme fitness (log ratio)” value was -3.52. On to G47U C49G C88A A95C C123A, for which the “polymerase ribozyme fitness (log ratio)” value is -3.47.

As to G48A A75U C79G A90U A95C G120A U129G, the “polymerase ribozyme fitness (log ratio)” value was -6.14. Turning to G47U C102U, the “polymerase ribozyme fitness (log ratio)” value is -3.31. Consider G47U G52A C72U, for which the “polymerase ribozyme fitness (log ratio)” value is -2.43. In the case of G47U G110C, the “polymerase ribozyme fitness (log ratio)” value was -5.49. Next, G47C U106A: -1.41; G48A C49U C56A A100U: -2.11. Consider G48A A84C C86U U87G G117A G128U, for which the “polymerase ribozyme fitness (log ratio)” value was -6.08. G47U A95U A108G C123A: the “polymerase ribozyme fitness (log ratio)” value is -3.06. With G47U C56U U116C, the “polymerase ribozyme fitness (log ratio)” value is -2.14. Consider G47U C79G A100G C114G, for which the “polymerase ribozyme fitness (log ratio)” value was -6.83. For G47U G71U, the “polymerase ribozyme fitness (log ratio)” value was -2.23.

For the variant G47U G71C, the “polymerase ribozyme fitness (log ratio)” value is -2.44.

In the case of G47U U54C C76A U92C, the “polymerase ribozyme fitness (log ratio)” value was -5.69.

As for G47U C49G A50C G57U, the “polymerase ribozyme fitness (log ratio)” value is -1.42. For G48A C56U U59C C86A C94A A111C, the “polymerase ribozyme fitness (log ratio)” value was -5.39. Regarding G47C G77U C88A C97U G113C G117C, the “polymerase ribozyme fitness (log ratio)” value was -6.98.

Consider G47U U59C C97U G110C A121G U126C, for which the “polymerase ribozyme fitness (log ratio)” value is -6.2. Next, G47C G52C C73U G120U C123A: -2.99; G47C G60C U109A U112G: -7.01. As for G47U C97A, the figure is -5.54; as for G47C G77U A100U, -1.79; as for G47U C64A, -6.47. Regarding G47U C64A C80G U87G C88A U112A, the “polymerase ribozyme fitness (log ratio)” value was -6.27.

With G48A A111G, the “polymerase ribozyme fitness (log ratio)” value was -0.578. As to G48A A111C, the “polymerase ribozyme fitness (log ratio)” value is -0.446. In the case of G47U C73A C85U, the “polymerase ribozyme fitness (log ratio)” value was -1.61. In the case of G47U C53U C104U, the “polymerase ribozyme fitness (log ratio)” value is -1.72. With G47U G71C C104A, the “polymerase ribozyme fitness (log ratio)” value was -4.32. Take G47C G63U: the “polymerase ribozyme fitness (log ratio)” value is -3.66. Next, G48A C49U C53A A111U: -3.28; G47U G60A C86A C89U: -0.955; G47U C80U C124A U131G G135A: -0.0494. In the case of G47U G60U U116C U131A U132C, the “polymerase ribozyme fitness (log ratio)” value is -1.54. As for G47C G93A C124A G127U G135U, the figure is -2.23; as for G47U U81A, -3.01; as for G47U G51U, -4.87.

On to G47C U116C, for which the “polymerase ribozyme fitness (log ratio)” value is -2.31. Regarding G47C U133G, the “polymerase ribozyme fitness (log ratio)” value was -1.54. For G48A A95G U116G, the “polymerase ribozyme fitness (log ratio)” value was -1.38. G47U U112C: the “polymerase ribozyme fitness (log ratio)” value is -0.538.

As to G47U U112A, the “polymerase ribozyme fitness (log ratio)” value was found to be 0.352. Take G48A C62A G69U: the “polymerase ribozyme fitness (log ratio)” value was -5.25. With G47U C124G, the “polymerase ribozyme fitness (log ratio)” value worked out at 0.196. With G47U C124A, the “polymerase ribozyme fitness (log ratio)” value was -0.524. Turning to G47U G69U U131A, the “polymerase ribozyme fitness (log ratio)” value was -1.3. Next, G47C G63U C102A U112C G113U: -7.27; G47C G61C: -3.43; G47U C76U: -1.17. Next, G48A C53G U55C G69A: -2.78.
